Measured values published in patent US20210388087A1 (Chugai, published 2021).
Values belong to the binder of their own block, whether it stands above or below them. Where no end group is shown, it is not given here.

Columns and labels:
Human CD137 ECD = biological target: T1, Human CD137 ECD (human); assay: SPR (Biacore), affinity of single-mutation variant against parental H183/L072
T1 construct: also called human CD137 extracellular domain; hCD137

Human CD3eg linker = biological target: T2, Human CD3eg linker (human); assay: affinity relative to template H183/L072, single-mutation scan
T2 construct: Single chain: CD3 epsilon and gamma subunits joined by a 29-mer linker, Flag-tag at the C-terminus; also called recombinant human CD3
T2 chain: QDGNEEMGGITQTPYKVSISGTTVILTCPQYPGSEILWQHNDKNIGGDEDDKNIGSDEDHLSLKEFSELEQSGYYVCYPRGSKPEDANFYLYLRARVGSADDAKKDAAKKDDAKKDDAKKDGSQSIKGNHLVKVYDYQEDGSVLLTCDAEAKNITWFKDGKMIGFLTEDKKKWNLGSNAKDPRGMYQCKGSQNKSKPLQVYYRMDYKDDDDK

human CD137-Fc [1] = biological target: T3, human CD137-Fc (human, biotin-labeled); assay: bead ELISA, IgG on biotinylated antigen, luminescence;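 also: biotinylated antigen captured on streptavidin magnetic beads, then incubated with purified IgG at 50 ng/µL for 1 h at room temperature before detection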
T3 construct: if 90 already holds the Fc, drop the second piece; also called biotin-labeled human CD137 fused to human IgG1 Fc fragment; biotin-human CD137-Fc; not shown: human IgG1 Fc fragment

cyno CD137-Fc = biological target: T4, cyno CD137-Fc (cynomolgus monkey; human, limits assumed, biotin-labeled); assay: as above
T4 construct: whole entry 92 named; also called biotin-labeled cynomolgus monkey CD137 fused to human IgG1 Fc fragment; not shown: human IgG1 Fc fragment
T4 chain: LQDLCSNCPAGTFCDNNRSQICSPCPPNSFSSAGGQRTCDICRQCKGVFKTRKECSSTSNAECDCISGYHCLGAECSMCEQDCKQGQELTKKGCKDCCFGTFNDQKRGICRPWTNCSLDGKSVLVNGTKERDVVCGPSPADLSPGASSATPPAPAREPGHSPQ

human CD137-Fc [2] = biological target: T3, human CD137-Fc; assay: bead ELISA on biotin-human CD137-Fc, 0 pmol free CD3e peptide
[3] = biological target: T5, Biotin-labeled CD3 epsilon peptide antigen (human, also: biotin-labeled, site not given here); assay: bead ELISA, IgG on biotinylated CD3 epsilon peptide, luminescence
T5 construct: also called CD3 peptide
T5 peptide: QDGNEEMGGITQTPY

human CD137-Fc [4] = biological target: T3, human CD137-Fc; assay: bead ELISA on biotin-human CD137-Fc, 125 vs 0 pmol free CD3e peptide;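 also: target captured on streptavidin-coated magnetic beads, signal read as fluorescence 2 min after adding APS-5 substrate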
human CD137-Fc [5] = biological target: T3, human CD137-Fc; assay: bead ELISA on biotin-human CD137-Fc with 125 pmol/well free CD3e peptide as competitor;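 also: Streptavidin-coated magnetic beads in blocking buffer as the capture surface, well signal read as fluorescence 2 min after adding APS-5 substrate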

B4: DXDU01_3#072 (antibody, V domains shown)
VH: QVQLVESGGGLVQPGRSLRLSCAASGFTFSNAWMHWVRQAPGKGLEWVAQIKDRSQLYAAYYAPSVKGRFTISRDDSKNSIYLQMNSLKTEDTAVYYCHYVHYASASTVLGAYGVDAWGQGTTVTVSS
VL: DIVMTQSPLSLPVTPGEPASISCRSSQSLVHSNRNTYLHWYQQKPGQAPRLLIYKVSNRFSGVPDRFSGSGSGTDFTLKISRVEAEDVGVYYCGQGTQVPYTFGQGTKLEIK
notes: Human IgG1; light chain GLS3000 (kappa); also called dBBDu122
RLU (human CD137-Fc [1]): 14100 RLU | S/N ratio (human CD137-Fc/Fc) (human CD137-Fc [1]): 6.58 | RLU (cyno CD137-Fc): 3350 RLU | S/N ratio (cyno CD137-Fc/Fc) (cyno CD137-Fc): 1.56 | ELISA signal (human CD137-Fc [2]): 2700 | RLU [3]: 177000 RLU | S/N ratio (CD3 peptide/non coating) [3]: 148 | Signal decrease (human CD137-Fc [4]): 30.2% | ELISA signal (human CD137-Fc [5]): 1880

B6: Dual-Fab H183/L072 variant with single light chain mutation V94Y (Kabat) (antibody, name in Kabat numbering, V domains shown)
VH: QVQLVESGGGLVQPGRSLRLSCAASGFTFSNAWMHWVRQAPGKGLEWVAQIKDKGNAYAAYYAPSVKGRFTISRDDSKNSIYLQMNSLKTEDTAVYYCHYVHYASASTVLPAFGVDAWGQGTTVTVSS
VL: DIVMTQSPLSLPVTPGEPASISCQASQELVHMNRNTYLHWYQQKPGQAPRLLIYKVSNRFPGVPDRFSGSGSGTDFTLKISRVEAEDVGVYYCAQGTSYPFTFGQGTKLEIK
notes: expressed as an antibody in Expi293 and purified on Protein A; also called dBBDu183H / dBBDu072L V94Y
fold change of affinity for CD137 (Human CD137 ECD): 0.1 fold

B7: H183/L072 with A89Y (Kabat) in VL dBBDu072L (antibody, name in Kabat numbering, V domains shown)
VH: QVQLVESGGGLVQPGRSLRLSCAASGFTFSNAWMHWVRQAPGKGLEWVAQIKDKGNAYAAYYAPSVKGRFTISRDDSKNSIYLQMNSLKTEDTAVYYCHYVHYASASTVLPAFGVDAWGQGTTVTVSS
VL: DIVMTQSPLSLPVTPGEPASISCQASQELVHMNRNTYLHWYQQKPGQAPRLLIYKVSNRFPGVPDRFSGSGSGTDFTLKISRVEAEDVGVYYCYQGTSVPFTFGQGTKLEIK
notes: Single-mutation variant of H183L072
fold change of affinity for CD3 (Human CD3eg linker): 0.5 fold

B8: H183/L072 with N53Y (Kabat) in VL dBBDu072L (antibody, name in Kabat numbering, V domains shown)
VH: QVQLVESGGGLVQPGRSLRLSCAASGFTFSNAWMHWVRQAPGKGLEWVAQIKDKGNAYAAYYAPSVKGRFTISRDDSKNSIYLQMNSLKTEDTAVYYCHYVHYASASTVLPAFGVDAWGQGTTVTVSS
VL: DIVMTQSPLSLPVTPGEPASISCQASQELVHMNRNTYLHWYQQKPGQAPRLLIYKVSYRFPGVPDRFSGSGSGTDFTLKISRVEAEDVGVYYCAQGTSVPFTFGQGTKLEIK
notes: as for B7
fold change of affinity for CD3 (Human CD3eg linker): 0.7 fold

Other lines, results leading:

fold change of affinity for CD137 (Human CD137 ECD): 0 fold
B1: Dual-Fab H183/L072 variant with single light chain mutation P95Y (Kabat) (antibody, name in Kabat numbering, V domains shown)
VH: QVQLVESGGGLVQPGRSLRLSCAASGFTFSNAWMHWVRQAPGKGLEWVAQIKDKGNAYAAYYAPSVKGRFTISRDDSKNSIYLQMNSLKTEDTAVYYCHYVHYASASTVLPAFGVDAWGQGTTVTVSS
VL: DIVMTQSPLSLPVTPGEPASISCQASQELVHMNRNTYLHWYQQKPGQAPRLLIYKVSNRFPGVPDRFSGSGSGTDFTLKISRVEAEDVGVYYCAQGTSVYFTFGQGTKLEIK
notes: expressed as an antibody in Expi293 and purified on Protein A; also called dBBDu183H / dBBDu072L P95Y

fold change of affinity for CD137 (Human CD137 ECD): 1.2 fold
B2: Dual-Fab H183/L072 variant with single light chain mutation S52Y (Kabat) (antibody, name in Kabat numbering, V domains shown)
VH: QVQLVESGGGLVQPGRSLRLSCAASGFTFSNAWMHWVRQAPGKGLEWVAQIKDKGNAYAAYYAPSVKGRFTISRDDSKNSIYLQMNSLKTEDTAVYYCHYVHYASASTVLPAFGVDAWGQGTTVTVSS
VL: DIVMTQSPLSLPVTPGEPASISCQASQELVHMNRNTYLHWYQQKPGQAPRLLIYKVYNRFPGVPDRFSGSGSGTDFTLKISRVEAEDVGVYYCAQGTSVPFTFGQGTKLEIK
notes: expressed as an antibody in Expi293 and purified on Protein A; also called dBBDu183H / dBBDu072L S52Y

fold change of affinity for CD3 (Human CD3eg linker): 10.6 fold
B3: H183/L072 with F55Y (Kabat) in VL dBBDu072L (antibody, name in Kabat numbering, V domains shown)
VH: QVQLVESGGGLVQPGRSLRLSCAASGFTFSNAWMHWVRQAPGKGLEWVAQIKDKGNAYAAYYAPSVKGRFTISRDDSKNSIYLQMNSLKTEDTAVYYCHYVHYASASTVLPAFGVDAWGQGTTVTVSS
VL: DIVMTQSPLSLPVTPGEPASISCQASQELVHMNRNTYLHWYQQKPGQAPRLLIYKVSNRYPGVPDRFSGSGSGTDFTLKISRVEAEDVGVYYCAQGTSVPFTFGQGTKLEIK
notes: as for B7

fold change of affinity for CD3 (Human CD3eg linker): 0.4 fold
B5: H183/L072 with F96Y (Kabat) in VL dBBDu072L (antibody, name in Kabat numbering, V domains shown)
VH: QVQLVESGGGLVQPGRSLRLSCAASGFTFSNAWMHWVRQAPGKGLEWVAQIKDKGNAYAAYYAPSVKGRFTISRDDSKNSIYLQMNSLKTEDTAVYYCHYVHYASASTVLPAFGVDAWGQGTTVTVSS
VL: DIVMTQSPLSLPVTPGEPASISCQASQELVHMNRNTYLHWYQQKPGQAPRLLIYKVSNRFPGVPDRFSGSGSGTDFTLKISRVEAEDVGVYYCAQGTSVPYTFGQGTKLEIK
notes: as for B7
